Test results published in patent US6617114B1, “Identification of drug complementary combinatorial libraries” (priority 1996, dated 2003).
Where no end group is shown, it is not given here.

What was measured:
estrogen receptor α (ER) = estrogen receptor α (ER) (Homo sapiens, UniProt P03372); assay: Phage ELISA competition on immobilized estrogen receptor
GST-UL44 = target: T1, GST-UL44 (Human cytomegalovirus, UniProt P16790); assay: Enzyme Linked Spectrophotometric Assay (ELSA) for CMV UL44; assay type: binding
T1 construct: made in house; host or cells: E. coli DH5aF′
T1 sequence (P16790 whole entry): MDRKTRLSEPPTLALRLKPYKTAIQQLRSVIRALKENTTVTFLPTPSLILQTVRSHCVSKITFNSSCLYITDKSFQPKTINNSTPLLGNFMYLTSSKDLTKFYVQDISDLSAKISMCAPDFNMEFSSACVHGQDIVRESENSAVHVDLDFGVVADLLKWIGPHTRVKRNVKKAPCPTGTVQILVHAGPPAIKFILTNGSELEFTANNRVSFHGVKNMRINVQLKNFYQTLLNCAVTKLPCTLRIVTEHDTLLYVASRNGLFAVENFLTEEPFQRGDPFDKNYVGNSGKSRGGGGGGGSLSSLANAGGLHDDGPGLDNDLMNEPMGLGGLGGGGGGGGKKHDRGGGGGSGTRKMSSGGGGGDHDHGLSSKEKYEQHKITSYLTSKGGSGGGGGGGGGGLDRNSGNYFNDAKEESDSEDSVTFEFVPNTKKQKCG
Procedure: IMMULON-4 (cat.#011-010-3855) 96-well microtitration test plates were purchased from Dynatech. Bovine serum, albumin (BSA) (A2153), Streptavidin alkaline phosphatase (SA-AP) (S2890), TWEEN-20 detergent (P1379), and p-nitrophenyl phosphate tablets (pNPP) (N-1891, N-2770) were purchased from Sigma. Phosphate buffered saline (PBS) (21600-010) was obtained from Gibco-BRL. Ultrapure glycerol (#16374) was purchased from USB. Biotinylated surrogate ligands were prepared as a 1 mM stock solution in the appropriate solvent (H2O or 10% acetonitrile). SA-AP was prepared as a 1 mg/ml stock solution in PBS containing 10% glycerol and stored in aliquots at −80° C.
Target protein was immobilized in microtiter wells by incubating 0.5-2.0 μg per well in 100 μl of 0.1 M NaHCO3 overnight at 4° C. […] During the 1 hour blocking period, the SA-AP:surrogate ligand conjugate was prepared by mixing 2 μg SA-AP and 50 pmol biotinylated surrogate ligand for each well of target protein. (This corresponds to a 1:1 ratio of biotinylated peptide to biotin binding sites.) The mixture was incubated at room temperature for 15-20 minutes and then diluted with Tris-buffered saline-TWEEN-20 detergent (TBST) 10 mM Tris-HCl, pH 8.0, 150 mM NaCl, 0.05% TWEEN-20 detergent such that there was 100 μl of conjugate per well. […]
After blocking, the wells were washed once with 200 μl TBST. […] The absorbance was read at 405 nm.

[1] = target: T2, GST portion of the GSTUL44 fusion (Schistosoma japonicum, UniProt P08515); assay: Phage ELISA competition on immobilized GSTUL44, GST-specific phage; assay type: binding; conditions: various concentrations of competitor
T2 construct: made in house; host or cells: E. coli DH5aF′
T2 sequence (P08515 whole entry, the tested form may be a part): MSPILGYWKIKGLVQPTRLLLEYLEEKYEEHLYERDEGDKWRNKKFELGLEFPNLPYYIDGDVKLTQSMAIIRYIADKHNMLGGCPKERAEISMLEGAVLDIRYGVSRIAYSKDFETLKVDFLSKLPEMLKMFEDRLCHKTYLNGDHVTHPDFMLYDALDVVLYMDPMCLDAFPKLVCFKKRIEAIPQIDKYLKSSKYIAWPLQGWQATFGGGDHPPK
Procedure: (§1) To map the. binding site for the UL44 specific phage displaying the constrained peptide from the X10C library, we competed this phage for binding with linear double stranded DNA. To show the specificity of binding for the substrates and the phage, both phage were competed with both substrates. Microtiter plates were coated with GSTUL44 protein and blocked as described above. Phage specific for either the GST portion or the UL44 portion of the fusion were then added to separate wells and at the same time various concentrations of either GSH or DNA were added. It is important to keep in mind that these phage were isolated from the same affinity selection run.

UL44 = target: T3, UL44 (Human cytomegalovirus, UniProt P16790); assay: Phage ELISA competition on immobilized GSTUL44, UL44-specific phage; assay type: binding; conditions: various concentrations of competitor
T3 construct: made in house; host or cells: E. coli DH5aF′
T3 sequence (P16790 whole entry): as the sequence (P16790 whole entry) above
Procedure: as §1

[2] = target: T4, Agrobacterium faecalis beta-glucosidase (Agrobacterium sp., UniProt P12614); assay: Phage ELISA competition with conduritol on beta-glucosidase; assay type: binding; conditions: 3 mM conduritol for 3 hours
T4 sequence (P12614 1-459): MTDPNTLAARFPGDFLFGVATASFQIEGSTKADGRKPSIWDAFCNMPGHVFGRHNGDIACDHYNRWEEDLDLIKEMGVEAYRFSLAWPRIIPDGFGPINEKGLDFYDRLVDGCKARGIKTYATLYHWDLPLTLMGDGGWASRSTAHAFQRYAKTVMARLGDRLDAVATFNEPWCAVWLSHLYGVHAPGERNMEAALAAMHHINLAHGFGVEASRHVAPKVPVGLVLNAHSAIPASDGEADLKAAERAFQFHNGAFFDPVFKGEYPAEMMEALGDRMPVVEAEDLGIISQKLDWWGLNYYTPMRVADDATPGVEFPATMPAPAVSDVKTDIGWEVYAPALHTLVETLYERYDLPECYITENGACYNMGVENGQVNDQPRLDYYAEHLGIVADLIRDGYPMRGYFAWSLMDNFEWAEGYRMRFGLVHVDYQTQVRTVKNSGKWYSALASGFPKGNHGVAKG
Procedure: For the first method of affinity purification, phage libraries were mixed with 1 μg biotinylated target protein in solution and allowed to incubate at room temperature for 4 hours. Phage:protein complexes were then captured on streptavidin paramagnetic beads (Promega, cat#Z5482) by adding beads and incubating the tubes while rotating at room temperature for 30 minutes. The complexes were then drawn to the sides of the tubes using a magnet and the beads were washed with TBST containing 5 mM biotin. Beads were washed once in the first round of panning and 3 times for each additional round. Phage were eluted and amplified using the sequential procedure described in example 3. In the second method of affinity purification, phage libraries were mixed with 1 μg biotinylated target protein that was first captured on streptavidin paramagnetic beads. After the protein was bound, the beads were washed once with TBST containing 5 mM biotin to block the remaining binding sites on streptavidin. The libraries and beads were then mixed at room temperature on a rotator for 4 hours and washed, eluted and amplified as above. Phage ELISAs were carried out by first coating a microtiter plate (Immulon4, Dynex) with 1 μg streptavidin, followed by blocking with BSA. Biotinylated protein was then added to the wells and allowed to bind to the streptavidin for 1 hour. […]

[3] = target: T5, carboxypeptidase B from pig pancreas (pig), P09955; assay: cross reactivity phage ELISA
T5 chain: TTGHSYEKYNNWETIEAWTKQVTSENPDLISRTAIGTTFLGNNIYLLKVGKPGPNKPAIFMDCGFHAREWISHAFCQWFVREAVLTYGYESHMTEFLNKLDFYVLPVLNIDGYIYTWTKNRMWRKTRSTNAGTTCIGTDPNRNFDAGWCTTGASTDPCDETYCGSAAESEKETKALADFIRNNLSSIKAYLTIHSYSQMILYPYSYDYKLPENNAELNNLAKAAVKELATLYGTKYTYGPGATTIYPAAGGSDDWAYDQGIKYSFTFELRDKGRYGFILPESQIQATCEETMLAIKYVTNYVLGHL

[4] = target: T6, Yeast alcohol dehydrogenase (yeast), P00330; assay: cross reactivity phage ELISA
T6 chain: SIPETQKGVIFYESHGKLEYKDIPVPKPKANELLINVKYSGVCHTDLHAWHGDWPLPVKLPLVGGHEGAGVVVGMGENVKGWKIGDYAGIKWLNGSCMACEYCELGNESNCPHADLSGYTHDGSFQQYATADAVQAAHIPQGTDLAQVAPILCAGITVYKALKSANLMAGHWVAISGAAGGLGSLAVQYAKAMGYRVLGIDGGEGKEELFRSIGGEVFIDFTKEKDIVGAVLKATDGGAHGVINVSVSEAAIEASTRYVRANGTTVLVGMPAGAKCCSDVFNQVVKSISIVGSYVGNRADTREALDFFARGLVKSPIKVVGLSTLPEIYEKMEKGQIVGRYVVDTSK

[5] = target: T7, E. coli proline tRNA synthetase (E. coli), P16659; assay: cell-based or functional assay
T7 chain: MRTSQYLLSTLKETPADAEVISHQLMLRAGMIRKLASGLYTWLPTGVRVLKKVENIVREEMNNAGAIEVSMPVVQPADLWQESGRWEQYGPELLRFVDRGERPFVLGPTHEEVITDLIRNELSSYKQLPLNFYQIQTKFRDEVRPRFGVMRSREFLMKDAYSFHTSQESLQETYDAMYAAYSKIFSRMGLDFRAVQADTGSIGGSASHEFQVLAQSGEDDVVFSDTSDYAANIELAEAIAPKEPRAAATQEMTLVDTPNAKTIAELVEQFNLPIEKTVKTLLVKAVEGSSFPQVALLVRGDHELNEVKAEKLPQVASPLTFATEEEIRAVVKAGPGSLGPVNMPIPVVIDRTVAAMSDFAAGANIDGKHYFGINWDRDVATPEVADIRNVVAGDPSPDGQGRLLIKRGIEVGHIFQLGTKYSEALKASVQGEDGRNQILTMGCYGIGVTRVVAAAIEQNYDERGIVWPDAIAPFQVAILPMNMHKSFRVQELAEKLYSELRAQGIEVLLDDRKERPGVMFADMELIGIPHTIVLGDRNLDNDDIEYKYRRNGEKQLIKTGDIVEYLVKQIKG

[6] = target: T7, E. coli proline tRNA synthetase (E. …); assay: tRNA charging (enzyme activity) assay, competitive in respect to proline

Chain of estrogen receptor α (ER) (P03372 whole entry): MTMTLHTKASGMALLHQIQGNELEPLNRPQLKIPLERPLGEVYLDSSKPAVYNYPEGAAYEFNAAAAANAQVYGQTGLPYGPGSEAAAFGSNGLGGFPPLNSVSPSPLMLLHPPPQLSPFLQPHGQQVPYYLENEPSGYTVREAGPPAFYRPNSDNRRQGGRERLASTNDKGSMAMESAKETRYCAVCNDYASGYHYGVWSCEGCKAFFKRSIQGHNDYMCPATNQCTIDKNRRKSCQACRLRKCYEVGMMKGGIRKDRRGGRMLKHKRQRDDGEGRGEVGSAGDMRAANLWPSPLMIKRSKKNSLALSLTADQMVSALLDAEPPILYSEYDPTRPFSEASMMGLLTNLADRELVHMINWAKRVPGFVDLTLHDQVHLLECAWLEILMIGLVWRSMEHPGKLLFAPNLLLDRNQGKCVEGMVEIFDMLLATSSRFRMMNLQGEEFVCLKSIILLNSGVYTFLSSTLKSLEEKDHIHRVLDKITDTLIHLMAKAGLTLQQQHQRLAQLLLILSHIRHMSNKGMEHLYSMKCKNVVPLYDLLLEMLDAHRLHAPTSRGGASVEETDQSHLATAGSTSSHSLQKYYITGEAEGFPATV

W L D G L P L Y H E V (WLDGLPLYHEV) [Peptide 5]
effect of antiestrogens on phage binding to ER (estrogen receptor α (ER); phage selected with estradiol, 100 μM tamoxifen, nafoxidine, clomiphene): S S L T S R D F G S W Y A S R * (SEQ ID NO:156)

Biotin-H-Ser-Gly-Ser-Gly-Glu-His-Val-Cys-Ser-Trp-Gly-Trp-Gly-Arg-Cys-OH [UL44 BioKey]
specificity of binding of biotinylated peptide (GST-UL44; tested on streptavidin, GST-UL44, GST, GST-SrcSH3): binds specifically to UL44

4-hydroxytamoxifen [reference compound]
competition with ER binding phage selected in the absence of estradiol (estrogen receptor α (ER)): does not inhibit

N[C@@H](CCC(=O)N[C@@H](CS)C(=O)NCC(=O)O)C(=O)O [GSH, glutathione]
binding of GST specific phage to GSTUL44 in presence of competitor [1]: competed in a dose dependent fashion
binding of UL44 specific phage (X10C peptide) to GSTUL44 in presence of competitor (UL44): no effect

O[C@@H]1[C@H](O)[C@@H](O)C=C[C@H]1O [conduritol]
binding of phage from group 1 after conduritol [2]: unaffected
binding of phage from group 2 after conduritol [2]: inhibited

H-Ser-Gly-Ser-Gly-Glu-His-Val-Cys-Ser-Trp-Gly-Trp-Gly-Arg-Cys-OH (H-SGSGEHVCSWGWGRC-OH; cysteine pairing not given here) [non-biotinylated UL44 peptide]
competition of biotinylated UL44 peptide binding (GST-UL44; self-competition): competed specifically

SSFRELKPGWWSYSR (modifications not checked)
fold ELISA signal on the specific target vs any other target tested [3]: > 10 fold

SRQVEVFKPWPVYSR (modifications not checked)
fold ELISA signal on the specific target vs any other target tested [4]: > 10 fold

SSLLNESRLQWSTSR (modifications not checked)
fold ELISA signal on the specific target vs any other target tested [4]: > 10 fold

SSSFKPWPIYLGSSR (modifications not checked)
fold ELISA signal on the specific target vs any other target tested [4]: > 10 fold

SRVCAIWPDLDGCSR (not fully specified; cysteine pairing not given here) [non-biotinylated ProRS peptide]
charging assay (enzymatic activity of the target) [5]: 50 % inhibition
Ki [6]: > 500 µM

SVSVGMKPSPRP (modifications not checked)
fold ELISA signal on the specific target vs any other target tested [4]: > 10 fold

SSWGDYFNWRDGLSR (modifications not checked)
fold ELISA signal on the specific target vs any other target tested [3]: > 10 fold

SSNYWWQSPVLSRHSR (modifications not checked)
fold ELISA signal on the specific target vs any other target tested [4]: > 10 fold

SRLLEVSPGWWQMSR (modifications not checked)
fold ELISA signal on the specific target vs any other target tested [3]: > 10 fold

SSWQGNVLLGNWISR (modifications not checked)
fold ELISA signal on the specific target vs any other target tested [4]: > 10 fold
